In patent US20040132136A1 (ZymoGenetics, published 2004):

Target: the molecule itself
Assay: western blot of BHK conditioned media, reducing against non-reducing conditions
Procedure: Following selection for stable cell transfectants, media isolated from pools was analyzed by western blot under reducing and non-reducing conditions using a Ztgfβ-9 antibody or an anti-EE epitope tag antibody. […] Under non-reducing conditions, Ztgfβ-9 protein migrated as at 49 kDa species. […] C-terminal EE tagged human Ztgfβ-9 expressed in BHK cells was also anti-EE affinity purified and its N-terminal sequence determined.

B1: Human Ztgfβ-9 protein (ligand)
chain: AGAPRAGRRPARPRGCADRPEELLEQLYGRLAAGVLSAFHHTLQLGPREQARNASCPAGGRPADRRFRPPTNLRSVSPWAYRISYDPARYPRYLPEAYCLCRGCLTGLFGEEDVRFRSAPVYMPTVVLRRTPACAGGRSVYTEAYVTIPVGCTCVPEPEKDADSINSSIDKQGAKLLLGPNDAPAGP
notes: Expressed in BHK cells both with and without a C-terminal Glu-Glu tag; It migrated at 29 kDa reduced and 49 kDa non-reduced, read as a disulfide cross-linked homodimer
B1: binds.
